Measured values reported in patent US20210284724A1 (I MAB BIOPHARMA US, published 2021).

How the values were obtained:
[1] = biological target: T1, human CXCL13 (human, UniProt O43927 23-109); assay: SPR Biacore T200
T1 construct: also called huCXCL13; rhCXCL13
T1 sequence (looked up): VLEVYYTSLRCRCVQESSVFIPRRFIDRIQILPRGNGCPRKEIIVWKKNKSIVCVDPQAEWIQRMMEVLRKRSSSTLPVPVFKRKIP
Description: To further optimization of 71F4-B, each Mutations in 71F4A3 useful for improving binding (Kon) were added into 71F4-B, the sequences were listed in Table 28. Antibodies according to these sequences were generated and affinity testing was performed by Biacore T200.

[2] = biological target: T1, human CXCL13; assay: SPR Biacore 8K, Fab over immobilised CXCL13
Description: HuCXCL13 binding affinity by Surface Plasmon Resonance. 411A11E9, 415A3D1, 64C10G1, 21H12D9, 329F2E1, 71F4A3 were selected to produce Fab and tested binding affinity. The binding of the antibodies to huCXCL13 was examined by Biacore 8K. 10 mM HEPES, 150 mM NaCl, 3 mM EDTA, 0.05% Tween-20, pH 7.4 served as running buffer and 10 mM glycine-HCl, pH2.0 served as regeneration buffer. CXCL13 protein was immobilized on Sensor Chip CM5 using amine coupling method (immobilization level ˜30RU). The serial concentrations of Fab (0-16 nM) were injected over immobilized CXCL13 at the flow rate of 30 μl/min. The dissociation phases were 600s.

[3] = biological target: T1, human CXCL13; assay: ELISA, coated antigen
[4] = biological target: T2, cynomolgus CXCL13 (cynomolgus, UniProt H6WS58 23-109); assay: ELISA, coated antigen
T2 construct: also called cynoCXCL13; Cyno CXCL13
T2 sequence: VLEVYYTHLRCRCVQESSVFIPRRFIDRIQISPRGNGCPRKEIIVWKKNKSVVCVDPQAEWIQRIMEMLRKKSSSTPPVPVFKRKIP

[5] = biological target: T3, mouse CXCL13 (mouse, UniProt O55038 22-109); assay: ELISA, coated antigen
T3 construct: also called rmCXCL13
T3 sequence (looked up): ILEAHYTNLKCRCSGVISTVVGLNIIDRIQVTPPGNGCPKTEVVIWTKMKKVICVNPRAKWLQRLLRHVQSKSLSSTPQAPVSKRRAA

[6] = biological target: T1, human CXCL13; assay: cell-based blocking ELISA, CXCL13 to CHO-K1-CXCR5
How it was run: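 Hybridoma supernatants or purified antibodies were preincubated 30 min at RT with human CXCL13 (0.3 μg/ml, before mixing), then added 30 min to PFA-fixed CHO-K1-CXCR5 cells. Bound CXCL13 was detected with Mab5261 plus anti-human Fc-HRP, read at 450 nm.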

| Binder | Kd [1] [nM] | koff [1] [s⁻¹] | kon [1] [M⁻¹ s⁻¹] | further results |
| --- | --- | --- | --- | --- |
| 71F4-B-A (antibody, V domains shown) VH: EVQLVESGGGLVQPGGSLRLSCAASGIDFSRYWMSWVRQAPGKGLEWVAEINPEASTINYAPSLKDRFTISRDNAKNSLYLQMNSLRAEDTAVYYCARQDDYEYYTMDYWGQGTTVTVSS VL: DIQMTQSPSSLSASVGDRVTITCKVSQDVNTGVAWYQQKPGKAPKLLIYSASYRYTGVPSRFSGSGSGTDFTFTISSLQPEDIATYYCQQYYSTPLTFGGGTKLEIK | 0.388 | 6.82e-05 | 176000 | – |
| 71F4-B-L (antibody, V domains shown) VH: EVQLVESGGGLVQPGGSLRLSCAASGIDFSRYWMSWVRQAPGKGLEWVAEINPESSTINYAPSLKDRFTISRDNAKNSLYLQMNSLRAEDTAVYYCARQDDYLYYTMDYWGQGTTVTVSS VL: DIQMTQSPSSLSASVGDRVTITCKVSQDVNTGVAWYQQKPGKAPKLLIYSASYRYTGVPSRFSGSGSGTDFTFTISSLQPEDIATYYCQQYYSTPLTFGGGTKLEIK | 0.443 | 8.58e-05 | 194000 | – |
| 71F4-B-S2 (antibody, V domains shown) VH: EVQLVESGGGLVQPGGSLRLSCAASGIDFSRYWMSWVRQAPGKGLEWVAEINPESSTINYAPSLKDRFTISRDNAKNSLYLQMNSLRAEDTAVYYCARQDDYSYYTMDYWGQGTTVTVSS VL: DIQMTQSPSSLSASVGDRVTITCKVSQDVNTGVAWYQQKPGKAPKLLIYSASYRYTGVPSRFSGSGSGTDFTFTISSLQPEDIATYYCQQYYSTPLTFGGGTKLEIK | 0.52 | 0.000268 | 515000 | – |
| 71F4-B-AS (antibody, V domains shown) VH: EVQLVESGGGLVQPGGSLRLSCAASGIDFSRYWMSWVRQAPGKGLEWVAEINPEASSINYAPSLKDRFTISRDNAKNSLYLQMNSLRAEDTAVYYCARQDDYEYYTMDYWGQGTTVTVSS VL: DIQMTQSPSSLSASVGDRVTITCKVSQDVNTGVAWYQQKPGKAPKLLIYSASYRYTGVPSRFSGSGSGTDFTFTISSLQPEDIATYYCQQYYSTPLTFGGGTKLEIK | 0.321 | 7.25e-05 | 226000 | – |
| 71F4-B-T (antibody, V domains shown, also called 71F4A3-B-T) VH: EVQLVESGGGLVQPGGSLRLSCAASGIDFSRYWMSWVRQAPGKGLEWVAEINPESSTINYAPSLKDRFTISRDNAKNSLYLQMNSLRAEDTAVYYCARQDDYETYTMDYWGQGTTVTVSS VL: DIQMTQSPSSLSASVGDRVTITCKVSQDVNTGVAWYQQKPGKAPKLLIYSASYRYTGVPSRFSGSGSGTDFTFTISSLQPEDIATYYCQQYYSTPLTFGGGTKLEIK | 0.0456 | 1.17e-05 | 256000 | – |
| 71F4-B-SH (antibody, V domains shown) VH: EVQLVESGGGLVQPGGSLRLSCAASGIDFSRYWMSWVRQAPGKGLEWVAEINPESSTINYAPSLKDRFTISRDNAKNSLYLQMNSLRAEDTAVYYCARQDDYSHYTMDYWGQGTTVTVSS VL: DIQMTQSPSSLSASVGDRVTITCKVSQDVNTGVAWYQQKPGKAPKLLIYSASYRYTGVPSRFSGSGSGTDFTFTISSLQPEDIATYYCQQYYSTPLTFGGGTKLEIK | 0.29 | 5.55e-05 | 192000 | – |
| 71F4-B-ASH (antibody, V domains shown) VH: EVQLVESGGGLVQPGGSLRLSCAASGIDFSRYWMSWVRQAPGKGLEWVAEINPEASSINYAPSLKDRFTISRDNAKNSLYLQMNSLRAEDTAVYYCARQDDYSHYTMDYWGQGTTVTVSS VL: DIQMTQSPSSLSASVGDRVTITCKVSQDVNTGVAWYQQKPGKAPKLLIYSASYRYTGVPSRFSGSGSGTDFTFTISSLQPEDIATYYCQQYYSTPLTFGGGTKLEIK | 0.521 | 9.17e-05 | 176000 | – |
| 71F4-B-SSH (antibody, V domains shown) VH: EVQLVESGGGLVQPGGSLRLSCAASGIDFSRYWMSWVRQAPGKGLEWVAEINPESSSINYAPSLKDRFTISRDNAKNSLYLQMNSLRAEDTAVYYCARQDDYSHYTMDYWGQGTTVTVSS VL: DIQMTQSPSSLSASVGDRVTITCKVSQDVNTGVAWYQQKPGKAPKLLIYSASYRYTGVPSRFSGSGSGTDFTFTISSLQPEDIATYYCQQYYSTPLTFGGGTKLEIK | 0.377 | 9.46e-05 | 251000 | – |
| 71F4-B-LT (antibody, V domains shown, also called 71F4A3-B-LT) VH: EVQLVESGGGLVQPGGSLRLSCAASGIDFSRYWMSWVRQAPGKGLEWVAEINPESSTINYAPSLKDRFTISRDNAKNSLYLQMNSLRAEDTAVYYCARQDDYLTYTMDYWGQGTTVTVSS VL: DIQMTQSPSSLSASVGDRVTITCKVSQDVNTGVAWYQQKPGKAPKLLIYSASYRYTGVPSRFSGSGSGTDFTFTISSLQPEDIATYYCQQYYSTPLTFGGGTKLEIK | 0.0435 | 1.02e-05 | 235000 | – |
| 71F4-B-S1 (antibody, V domains shown) VH: EVQLVESGGGLVQPGGSLRLSCAASGIDFSRYWMSWVRQAPGKGLEWVAEINPESSSINYAPSLKDRFTISRDNAKNSLYLQMNSLRAEDTAVYYCARQDDYEYYTMDYWGQGTTVTVSS VL: DIQMTQSPSSLSASVGDRVTITCKVSQDVNTGVAWYQQKPGKAPKLLIYSASYRYTGVPSRFSGSGSGTDFTFTISSLQPEDIATYYCQQYYSTPLTFGGGTKLEIK | 0.404 | 9.26e-05 | 229000 | – |
| 71F4-B-H (antibody, V domains shown, also called 71F4A3-B-H) VH: EVQLVESGGGLVQPGGSLRLSCAASGIDFSRYWMSWVRQAPGKGLEWVAEINPESSTINYAPSLKDRFTISRDNAKNSLYLQMNSLRAEDTAVYYCARQDDYEHYTMDYWGQGTTVTVSS VL: DIQMTQSPSSLSASVGDRVTITCKVSQDVNTGVAWYQQKPGKAPKLLIYSASYRYTGVPSRFSGSGSGTDFTFTISSLQPEDIATYYCQQYYSTPLTFGGGTKLEIK | 0.0647 | 1.27e-05 | 197000 | – |
| 329F2E1 chimeric Fab (Fab, V domains shown, Fab) VH: EVKLLQSGGGLVQPGGSLKLSCAASGIDFSRYWMSWVRRAPGKGLEWIGEINPDSSTINYAPSLKDKFIISRDNAKNTLYLQMSKVRSEDTALYYCARQDDYDYYAMDYWGQGTSVTVSS VL: DIVMTQSHKFMSTSVGDRVSITCKASQDVSTGVAWYQQKPGQSPKLLIYSASYRYTGVPDRFTGSGSRTDFTFTISSVQTEDPAVYYCHQYYTIPLTFGAGTELELK | – | – | – | Kd [2]: 0.602 nM; koff [2]: 0.000581 s⁻¹; kon [2]: 966000 M⁻¹ s⁻¹ |
| 345G1B4 (antibody, V domains shown, Hybridoma mAb) VH: QVTLKESGPGILQPSQTLSLTCSFSGFSLSTSNMGVGWIRQPSGKGLEWLAHIWWDDVKRYNPALKSRLTISKDTSSSQVFLKIASVDTADTATYYCARSTTLVAFDYWGQGTTLTVSS VL: DIVMTQSPSSLTVTAGEKVTMSCKSSQSLLNSGNQKNYLTWYQQKPGQPPKLLIYWASTRESGVPDRFTGSGSGTDFTLTISSVQAEDLAVYYCQNDYSYPTFGGGTKLEIK | – | – | – | EC50 [3]: 0.0138 µg/mL; binding result [4]: no binding; binding result [5]: no binding; IC50 [6]: 3.24 µg/mL |
| 396A5A1 (antibody, V domains shown, Hybridoma mAb) VH: QVTLKESGPGILQPSQTLSLTCSFSGFSLSTSGMGIGWIRQPSGKGLEWLAHIWWDDIKRYNPALKSRLTVSKDTSTSQVFLNIASVDTADIATYFCARSTTVVAFDYWGQGTTLTVSS VL: DILMTQSPSSLTVTAGEKVTMSCKSSQSLLNSGNQKNYLTWYQQKPGQPPKLLIYWASTRESGVPDRFTGTGSGTDFTLTISSVQAEDLAIYYCQNDYDYPTFGGGTKLEIK | – | – | – | EC50 [3]: 0.0135 µg/mL; binding result [4]: no binding; binding result [5]: no binding; IC50 [6]: 1 µg/mL |
| 409G9C2 (antibody, V domains shown, Hybridoma mAb) VH: EVQLQQSGPGLVKPSGTLSLTCAVSGGSITSSYWWTWVRQPPGKGLEWIGEIYHSGRPNYNPSLKSRATISVDKSRNQFSLNLTSVTAADTAVYYCAKTAAVSYWYFDLWGRGTLVTVSS VL: DIKMNQSPSSMSASLGDRVTITCQASQDIGNDLIWFQQKPGKSPRPLIYYASNLANGVPSRFSGRRSESNYSLTISSLESEDMADYHCLQFKQYPFTFGAGTKLELK | – | – | – | EC50 [3]: 2.27 µg/mL; binding result [4]: no binding; EC50 [5]: 0.538 µg/mL; IC50 [6]: 11.7 µg/mL |
| 410A4D10 (antibody, V domains shown, Hybridoma mAb) VH: EVQLQQSGPGLVRPSGTLSLTCAVSGGSISSRNWWGWVRQPPGKGLEWIGEIYHSGGTNYNPSLKSRVTISVDKSKNQFSLKLSSVTAADTAVYYCAREFGDSVWYFDLWGRGTLVTVSS VL: DIVITQSPSSMSASLGDRVTITCQASQDIGNDLVWFQQKPGKSPRPLIYYATNLADGVPSRFSGRRSESKYSLTISNLESEDMADYHCLQFKQYPYTFGAGTKLELK | – | – | – | EC50 [3]: 2.14 µg/mL; binding result [4]: no binding; EC50 [5]: 0.761 µg/mL; IC50 [6]: 8.38 µg/mL |
